Data as given in patent publication US20220153863A1 (published 2022).
Substitutions are numbered along the chain they refer to.

B1: B029_1A6 scFv displayed on phage (monoclonal phage clone) (scFv, V domains shown)
VH: EVQLLESGGGLVQPGGSLRLSCAASGFTFSNYAMSWVRQAPGKGLEWVSAISGSGGSTYYADSVKGRFTISRDNSKNTLYLQMNSLRAEDTAVYYCARGGLVLSPWGQGTLVTVSS
VL: EIVLTQSPGTLSLSPGERATLSCRASQSVSSNSLAWYQQKPGQAPRLLIYDASSRATGIPDRFSGSGSGTDFTLTISRLEPEDFAVYYCQQYESSPLTFGQGTKVEIK
B2: B029_2H1 scFv displayed on phage (monoclonal phage clone) (scFv, V domains shown)
VH: EVQLLESGGGLVQPGGSLRLSCAASGFTFTDYAMSWVRQAPGKGLEWVSWISGSGGSTKYADSVKGRFTISRDNSKNTLYLQMNSLRAEDTAVYYCAKCYDILTGYSIDYGMDVWGQGTTVTVSS
VL: B1 VL with N32T, S33Y, D51G, E93S, S95A, L97F
B3: B029_1H1 scFv displayed on phage (monoclonal phage clone) (scFv, V domains shown)
VH: EVQLLESGGGLVQPGGSLRLSCAASGFTFSSYAMSWVRQAPGKGLEWVSEIDGEGDSTKYADSVKGRFTISRDNSKNTLYLQMNSLRAEDTAVYYCAKEYYDIFDGTDVWGQGTTVTVSS
VL: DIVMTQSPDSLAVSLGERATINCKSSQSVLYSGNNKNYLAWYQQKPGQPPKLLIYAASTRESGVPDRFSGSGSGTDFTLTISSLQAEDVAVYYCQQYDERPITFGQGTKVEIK
B4: B029_1A7 scFv displayed on phage (monoclonal phage clone) (scFv, V domains shown)
VH: EVQLLESGGGLVQPGGSLRLSCAASGFTFSSYWMSWVRQAPGKGLEWVSDISGSGGSTYYADSVKGRFTISRDNSKNTLYLQMNSLRAEDTAVYYCASLPDSSGYYHWFDPWGQGTLVTVSS
VL: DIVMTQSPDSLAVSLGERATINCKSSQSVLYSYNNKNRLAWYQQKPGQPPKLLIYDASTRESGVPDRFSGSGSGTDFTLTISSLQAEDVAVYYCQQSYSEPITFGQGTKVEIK
B5: B029_2D4 scFv displayed on phage (monoclonal phage clone) (scFv, V domains shown)
VH: EVQLLESGGGLVQPGGSLRLSCAASGFTFSSYAMSWVRQAPGKGLEWVSAISGSGDSTYYADSVKGRFTISRDNSKNTLYLQMNSLRAEDTAVYYCARDVDSFEGGMDVWGQGTTVTVSS
VL: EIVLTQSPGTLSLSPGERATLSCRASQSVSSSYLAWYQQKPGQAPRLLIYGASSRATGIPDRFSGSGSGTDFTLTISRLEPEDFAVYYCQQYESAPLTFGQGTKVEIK
B6: B029_1G7 scFv displayed on phage (monoclonal phage clone) (scFv, V domains shown)
VH: EVQLLESGGGLVQPGGSLRLSCAASGFTFTDSAMSWVRQAPGKGLEWVSDIDGSGSGGGTYYADSVKGRFTISRDNSKNTLYLQMNSLRAEDTAVYYCATDRGWGTFDFWGQGTLVTVSS
VL: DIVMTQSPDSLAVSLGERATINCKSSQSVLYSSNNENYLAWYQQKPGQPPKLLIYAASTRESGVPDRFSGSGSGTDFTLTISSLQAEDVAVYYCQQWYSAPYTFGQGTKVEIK
B7: B029_1A7 full-length human IgG1 (antibody, V domains shown)
VH: B4 VH
VL: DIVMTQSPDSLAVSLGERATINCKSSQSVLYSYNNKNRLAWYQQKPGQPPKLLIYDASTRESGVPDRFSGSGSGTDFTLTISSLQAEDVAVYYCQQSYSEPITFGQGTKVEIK

Biological target: T1, PRAME peptide, amino acids Arg310-Asn331 of PRAME, conjugated to biotin or BSA (UniProt P78395 310-331, conjugated to either biotin or bovine serum albumin (BSA); site not stated)
T1 construct: range 310-331
T1 peptide (looked up): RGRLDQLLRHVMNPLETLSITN
Assay: ELISA with monoclonal phage supernatants
Source text: 184 PRAME binding phage clones yielded 35 membrane target hits with 6 unique sequences. Clones with unique antibody sequences were chosen for further analysis.

Binder	binding result
B1	binds
B2	binds
B3	binds
B4	binds
B5	binds
B6	binds

biological target: T2, PRAME (Preferentially Expressed Antigen in Melanoma) on PRAME+ cells (human, UniProt P78395 1-509); assay: flow cytometry, titrated antibody on THP-1 cells
T2 construct: whole, on cells; Endogenous PRAME on the THP-1 human cell line; also called THP-1 cells
T2 sequence (P78395 whole entry): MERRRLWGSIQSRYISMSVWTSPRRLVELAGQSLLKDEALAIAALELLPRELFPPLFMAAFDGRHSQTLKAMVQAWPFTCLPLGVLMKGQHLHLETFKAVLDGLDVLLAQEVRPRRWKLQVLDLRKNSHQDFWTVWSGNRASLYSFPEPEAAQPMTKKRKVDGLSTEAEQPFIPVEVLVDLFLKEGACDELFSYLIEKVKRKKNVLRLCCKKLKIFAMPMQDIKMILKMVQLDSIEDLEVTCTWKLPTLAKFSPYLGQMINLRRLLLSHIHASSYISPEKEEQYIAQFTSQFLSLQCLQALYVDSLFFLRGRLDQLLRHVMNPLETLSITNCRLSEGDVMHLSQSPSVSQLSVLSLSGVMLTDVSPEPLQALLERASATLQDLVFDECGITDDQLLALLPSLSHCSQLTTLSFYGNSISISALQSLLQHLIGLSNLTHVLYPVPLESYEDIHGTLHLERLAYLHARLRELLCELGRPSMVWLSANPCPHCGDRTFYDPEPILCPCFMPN
Source text: MPA1 (Pankov et al., 2017), a rabbit anti-PRAME polyclonal antibody was included as reference for comparison.

Binder	EC50 [nM]
B7	1.45
